In patent US20250262210A1 (TRUSTEES OF COLUMBIA UNIVERSITY IN THE CITY OF NEW YORK, published 2025):

Legend:
Experiment in all cases: IP/MS, LZTR1 R810W-FLAG, U87
[1] = molecular target: RNF213 (human, UniProt Q63HN8 1-5207, limits assumed)
Procedure, shortened: (§1)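 Extracted peptides in 3% acetonitrile/0.1% formic acid ran on a 50 cm C18 column into an Orbitrap Fusion, with MaxQuant identification and spectral counting.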

[2] = molecular target: DMXL2 (human, UniProt Q8TDJ6 1-3036, limits assumed)
Procedure, shortened: as §1

[3] = molecular target: ARHGEF40 (human, UniProt Q8TER5 1-1519, limits assumed)
Chain of ARHGEF40 (Q8TER5 whole entry): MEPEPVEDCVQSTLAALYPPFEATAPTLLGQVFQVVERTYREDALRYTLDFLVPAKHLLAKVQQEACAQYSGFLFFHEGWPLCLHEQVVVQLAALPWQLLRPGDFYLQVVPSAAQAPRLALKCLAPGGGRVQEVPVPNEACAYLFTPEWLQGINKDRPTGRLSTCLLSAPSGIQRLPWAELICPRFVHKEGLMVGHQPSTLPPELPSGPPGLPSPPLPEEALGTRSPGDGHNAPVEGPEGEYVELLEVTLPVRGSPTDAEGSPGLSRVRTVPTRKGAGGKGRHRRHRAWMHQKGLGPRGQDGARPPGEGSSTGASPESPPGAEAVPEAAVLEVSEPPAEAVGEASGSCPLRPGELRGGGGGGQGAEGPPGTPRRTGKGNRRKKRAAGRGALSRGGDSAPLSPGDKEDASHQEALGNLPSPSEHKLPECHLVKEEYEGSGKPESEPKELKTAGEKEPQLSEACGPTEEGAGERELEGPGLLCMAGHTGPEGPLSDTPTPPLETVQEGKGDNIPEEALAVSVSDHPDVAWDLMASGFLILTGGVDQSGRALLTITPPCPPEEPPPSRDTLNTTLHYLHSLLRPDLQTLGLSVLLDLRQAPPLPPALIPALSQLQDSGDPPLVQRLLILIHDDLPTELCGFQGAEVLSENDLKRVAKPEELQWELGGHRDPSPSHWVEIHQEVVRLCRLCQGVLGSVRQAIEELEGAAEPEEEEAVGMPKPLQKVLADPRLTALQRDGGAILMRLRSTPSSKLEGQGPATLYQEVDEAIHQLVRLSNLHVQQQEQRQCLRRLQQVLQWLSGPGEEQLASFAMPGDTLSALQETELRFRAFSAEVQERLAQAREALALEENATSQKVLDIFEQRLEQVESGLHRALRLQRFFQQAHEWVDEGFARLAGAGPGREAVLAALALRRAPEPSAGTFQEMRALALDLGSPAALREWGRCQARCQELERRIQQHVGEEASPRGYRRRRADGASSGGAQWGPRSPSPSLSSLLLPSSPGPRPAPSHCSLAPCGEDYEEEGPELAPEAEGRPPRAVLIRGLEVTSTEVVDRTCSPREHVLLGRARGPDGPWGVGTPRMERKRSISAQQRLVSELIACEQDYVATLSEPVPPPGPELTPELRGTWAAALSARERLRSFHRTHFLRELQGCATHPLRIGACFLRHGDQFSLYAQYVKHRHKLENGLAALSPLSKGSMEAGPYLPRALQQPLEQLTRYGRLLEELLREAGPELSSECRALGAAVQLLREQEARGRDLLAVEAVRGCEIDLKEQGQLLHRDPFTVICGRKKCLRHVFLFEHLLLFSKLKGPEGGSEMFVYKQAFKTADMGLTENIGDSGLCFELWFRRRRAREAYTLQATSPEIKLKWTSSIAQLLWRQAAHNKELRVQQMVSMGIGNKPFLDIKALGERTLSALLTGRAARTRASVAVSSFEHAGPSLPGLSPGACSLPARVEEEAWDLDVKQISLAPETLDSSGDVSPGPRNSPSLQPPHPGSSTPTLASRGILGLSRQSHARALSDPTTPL
Procedure, shortened: as §1

[4] = molecular target: RUSC2 (human, UniProt Q8N2Y8 1-1516)
Chain of RUSC2 (Q8N2Y8 whole entry): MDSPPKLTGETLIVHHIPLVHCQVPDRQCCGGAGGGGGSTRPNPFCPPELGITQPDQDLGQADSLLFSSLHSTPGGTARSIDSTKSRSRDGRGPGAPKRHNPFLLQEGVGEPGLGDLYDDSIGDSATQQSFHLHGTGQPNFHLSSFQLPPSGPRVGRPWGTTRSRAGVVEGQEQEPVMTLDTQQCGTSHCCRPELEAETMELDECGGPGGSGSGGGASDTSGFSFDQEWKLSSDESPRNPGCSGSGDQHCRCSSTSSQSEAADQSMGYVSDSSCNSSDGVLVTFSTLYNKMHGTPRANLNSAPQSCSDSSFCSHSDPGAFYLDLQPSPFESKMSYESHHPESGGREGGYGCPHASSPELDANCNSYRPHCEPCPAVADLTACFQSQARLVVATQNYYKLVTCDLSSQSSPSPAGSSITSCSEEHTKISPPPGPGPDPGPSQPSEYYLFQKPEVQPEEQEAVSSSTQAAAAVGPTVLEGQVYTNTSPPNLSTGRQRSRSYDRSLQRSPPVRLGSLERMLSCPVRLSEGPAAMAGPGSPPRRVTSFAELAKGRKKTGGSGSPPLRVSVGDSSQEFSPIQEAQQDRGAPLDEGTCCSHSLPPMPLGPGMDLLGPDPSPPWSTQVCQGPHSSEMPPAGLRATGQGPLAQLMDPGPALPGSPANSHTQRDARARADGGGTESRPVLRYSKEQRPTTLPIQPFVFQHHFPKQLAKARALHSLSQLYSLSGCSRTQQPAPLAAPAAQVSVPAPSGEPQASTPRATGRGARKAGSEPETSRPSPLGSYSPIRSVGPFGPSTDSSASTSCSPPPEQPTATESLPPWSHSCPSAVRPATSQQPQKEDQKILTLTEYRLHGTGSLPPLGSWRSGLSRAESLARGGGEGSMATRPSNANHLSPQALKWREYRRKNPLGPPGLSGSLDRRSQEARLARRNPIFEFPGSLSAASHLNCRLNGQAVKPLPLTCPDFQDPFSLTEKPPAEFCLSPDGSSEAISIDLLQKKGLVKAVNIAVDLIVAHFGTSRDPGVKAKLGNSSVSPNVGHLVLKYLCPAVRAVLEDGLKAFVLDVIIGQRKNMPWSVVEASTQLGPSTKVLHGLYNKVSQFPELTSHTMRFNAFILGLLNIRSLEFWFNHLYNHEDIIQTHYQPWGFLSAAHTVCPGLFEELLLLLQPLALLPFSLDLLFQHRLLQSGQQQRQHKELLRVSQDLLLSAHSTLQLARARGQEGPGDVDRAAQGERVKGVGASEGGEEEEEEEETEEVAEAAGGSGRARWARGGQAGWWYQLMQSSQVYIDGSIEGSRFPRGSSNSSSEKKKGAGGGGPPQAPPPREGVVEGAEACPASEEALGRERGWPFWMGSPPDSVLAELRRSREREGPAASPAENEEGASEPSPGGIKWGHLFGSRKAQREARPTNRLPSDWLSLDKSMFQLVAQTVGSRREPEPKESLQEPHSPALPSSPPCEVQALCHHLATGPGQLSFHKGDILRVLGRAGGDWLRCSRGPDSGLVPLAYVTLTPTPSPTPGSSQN
Procedure, shortened: as §1

[5] = molecular target: DPP9 (human, UniProt Q86TI2 2-863, limits assumed)
Procedure, shortened: as §1

[6] = molecular target: PTPN23 (human, UniProt Q9H3S7 1-1636)
Chain of PTPN23 (Q9H3S7 whole entry): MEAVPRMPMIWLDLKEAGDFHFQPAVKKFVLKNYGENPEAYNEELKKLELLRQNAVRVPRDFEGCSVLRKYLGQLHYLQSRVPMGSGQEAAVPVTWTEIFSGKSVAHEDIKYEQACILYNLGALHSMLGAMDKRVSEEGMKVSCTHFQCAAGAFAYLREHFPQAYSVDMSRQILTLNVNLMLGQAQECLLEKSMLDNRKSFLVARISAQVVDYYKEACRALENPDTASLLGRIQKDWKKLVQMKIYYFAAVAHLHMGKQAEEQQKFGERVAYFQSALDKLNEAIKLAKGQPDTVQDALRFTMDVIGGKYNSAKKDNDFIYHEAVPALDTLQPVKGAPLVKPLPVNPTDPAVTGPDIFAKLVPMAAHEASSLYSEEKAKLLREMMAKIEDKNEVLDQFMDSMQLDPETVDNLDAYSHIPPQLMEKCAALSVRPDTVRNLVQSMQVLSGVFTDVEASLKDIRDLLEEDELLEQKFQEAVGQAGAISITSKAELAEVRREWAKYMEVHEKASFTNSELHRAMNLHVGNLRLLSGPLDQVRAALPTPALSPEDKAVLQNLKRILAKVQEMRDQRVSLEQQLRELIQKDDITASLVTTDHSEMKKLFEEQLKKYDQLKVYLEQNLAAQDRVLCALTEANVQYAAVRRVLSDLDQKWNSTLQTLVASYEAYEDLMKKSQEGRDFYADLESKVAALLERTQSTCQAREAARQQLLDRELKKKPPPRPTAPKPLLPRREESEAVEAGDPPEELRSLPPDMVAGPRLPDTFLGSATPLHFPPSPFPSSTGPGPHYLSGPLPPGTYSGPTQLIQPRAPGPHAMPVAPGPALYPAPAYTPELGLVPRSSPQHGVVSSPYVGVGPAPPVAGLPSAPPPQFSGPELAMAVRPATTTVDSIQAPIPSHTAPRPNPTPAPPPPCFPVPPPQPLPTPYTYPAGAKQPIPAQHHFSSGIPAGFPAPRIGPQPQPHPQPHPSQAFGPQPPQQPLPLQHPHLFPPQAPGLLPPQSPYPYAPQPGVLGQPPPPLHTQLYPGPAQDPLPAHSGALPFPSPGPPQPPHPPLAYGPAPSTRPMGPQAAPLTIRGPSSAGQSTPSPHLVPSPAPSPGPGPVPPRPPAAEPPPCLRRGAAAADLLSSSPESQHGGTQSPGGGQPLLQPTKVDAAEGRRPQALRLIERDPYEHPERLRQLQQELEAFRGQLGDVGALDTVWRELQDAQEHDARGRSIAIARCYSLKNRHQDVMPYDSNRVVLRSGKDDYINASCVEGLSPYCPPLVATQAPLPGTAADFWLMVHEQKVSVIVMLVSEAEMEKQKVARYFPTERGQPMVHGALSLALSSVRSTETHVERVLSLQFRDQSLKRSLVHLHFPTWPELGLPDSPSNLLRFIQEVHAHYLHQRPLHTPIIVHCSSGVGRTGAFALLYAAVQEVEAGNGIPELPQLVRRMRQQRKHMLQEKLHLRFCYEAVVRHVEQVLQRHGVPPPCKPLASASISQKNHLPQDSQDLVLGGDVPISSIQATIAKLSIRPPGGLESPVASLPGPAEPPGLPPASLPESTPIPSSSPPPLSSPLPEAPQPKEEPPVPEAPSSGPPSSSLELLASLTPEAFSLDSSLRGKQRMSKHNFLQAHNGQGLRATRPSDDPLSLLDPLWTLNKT
Procedure, shortened: as §1

[7] = molecular target: T1, ELP1 (human, UniProt O95163 1-1332)
T1 sequence (looked up): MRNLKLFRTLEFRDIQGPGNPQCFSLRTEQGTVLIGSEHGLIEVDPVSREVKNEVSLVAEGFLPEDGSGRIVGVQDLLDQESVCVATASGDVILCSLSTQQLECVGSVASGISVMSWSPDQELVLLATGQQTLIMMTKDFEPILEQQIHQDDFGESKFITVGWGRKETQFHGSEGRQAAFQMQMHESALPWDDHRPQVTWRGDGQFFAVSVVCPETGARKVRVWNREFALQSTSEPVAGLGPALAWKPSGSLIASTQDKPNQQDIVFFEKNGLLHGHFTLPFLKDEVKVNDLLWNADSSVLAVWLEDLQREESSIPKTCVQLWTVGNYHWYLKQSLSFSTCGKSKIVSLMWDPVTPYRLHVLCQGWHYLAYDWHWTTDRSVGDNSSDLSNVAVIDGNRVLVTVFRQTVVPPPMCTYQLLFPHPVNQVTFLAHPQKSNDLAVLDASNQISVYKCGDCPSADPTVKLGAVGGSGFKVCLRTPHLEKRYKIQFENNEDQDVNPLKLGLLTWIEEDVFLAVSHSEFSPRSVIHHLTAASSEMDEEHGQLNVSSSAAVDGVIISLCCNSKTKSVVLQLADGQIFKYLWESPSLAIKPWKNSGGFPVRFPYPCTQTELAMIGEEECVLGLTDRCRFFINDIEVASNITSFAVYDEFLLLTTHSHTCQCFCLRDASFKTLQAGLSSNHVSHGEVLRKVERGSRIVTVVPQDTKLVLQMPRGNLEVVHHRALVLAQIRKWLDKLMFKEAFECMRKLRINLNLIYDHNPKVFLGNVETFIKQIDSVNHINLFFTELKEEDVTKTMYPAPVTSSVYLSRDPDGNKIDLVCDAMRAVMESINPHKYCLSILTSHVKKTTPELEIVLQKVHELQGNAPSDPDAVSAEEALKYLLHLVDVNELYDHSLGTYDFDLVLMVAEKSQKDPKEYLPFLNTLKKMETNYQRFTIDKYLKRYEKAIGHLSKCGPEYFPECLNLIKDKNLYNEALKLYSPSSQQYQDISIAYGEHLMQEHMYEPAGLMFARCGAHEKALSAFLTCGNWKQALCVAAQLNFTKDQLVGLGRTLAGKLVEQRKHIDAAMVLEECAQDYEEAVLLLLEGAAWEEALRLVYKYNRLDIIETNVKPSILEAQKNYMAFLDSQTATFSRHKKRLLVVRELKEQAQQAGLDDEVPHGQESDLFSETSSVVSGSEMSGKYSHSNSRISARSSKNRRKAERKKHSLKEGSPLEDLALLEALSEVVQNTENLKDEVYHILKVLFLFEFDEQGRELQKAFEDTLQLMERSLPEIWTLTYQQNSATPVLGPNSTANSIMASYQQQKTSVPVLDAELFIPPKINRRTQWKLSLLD
Procedure, shortened: as §1

Measured: binding result

B1: LZTR1 R810W-FLAG (other, human, UniProt Q8N653 1-840, looked up)
chain: MAGPGSTGGQIGAAALAGGARSKVAPSVDFDHSCSDSVEYLTLNFGPFETVHRWRRLPPCDEFVGARRSKHTVVAYKDAIYVFGGDNGKTMLNDLLRFDVKDCSWCRAFTTGTPPAPRYHHSAVVYGSSMFVFGGYTGDIYSNSNLKNKNDLFEYKFATGQWTEWKIEGRLPVARSAHGATVYSDKLWIFAGYDGNARLNDMWTIGLQDRELTCWEEVAQSGEIPPSCCNFPVAVCRDKMFVFSGQSGAKITNNLFQFEFKDKTWTRIPTEHLLRGSPPPPQRRYGHTMVAFDRHLYVFGGAADNTLPNELHCYDVDFQTWEVVQPSSDSEVGGAEVPERACASEEVPTLTYEERVGFKKSRDVFGLDFGTTSAKQPTQPASELPSGRLFHAAAVISDAMYIFGGTVDNNIRSGEMYRFQFSCYPKCTLHEDYGRLWESRQFCDVEFVLGEKEECVQGHVAIVTARSRWLRRKITQARERLAQKLEQEAAPVPREAPGVAAGGARPPLLHVAIREAEARPFEVLMQFLYTDKIKYPRKGHVEDVLLIMDVYKLALSFQLCRLEQLCRQYIEASVDLQNVLVVCESAARLQLSQLKEHCLNFVVKESHFNQVIMMKEFERLSSPLIVEIVRRKQQPPPRTPLDQPVDIGTSLIQDMKAYLEGAGAEFCDITLLLDGHPRPAHKAILAARSSYFEAMFRSFMPEDGQVNISIGEMVPSRQAFESMLRYIYYGEVNMPPEDSLYLFAAPYYYGFYNNRLQAYCKQNLEMNVTVQNVLQILEAADKTQALDMKRHCLHIIVHQFTKVSKLPTLWSLSQQLLLDIIDSLASHISDKQCAELGADI
notes: Stably expressed in U87 cells by lentivirus; also called LZTR1-FLAG-R810W; LZTR1 RW; not shown: FLAG tag
binds: all assays above
